The source of these data is publication PMC10259393, “The structural basis of the multi-step allosteric activation of Aurora B kinase” (eLife, 2023).

Non-standard residues stand in square brackets, D forms with d. pS = N[C@@H](COP(=O)(O)O)C(=O)O

Experiment [1] concerns the target IN-box (C-terminal part of INCENP) IN-box, 790-856. Description: mass photometry at 10 nM complex. The note with it: reference: [Aurora B/IN-box]all-P, as purified; sites T248,S849,S850.
The target of experiment [2] is T1, Aurora B (59-361 aa) from X. laevis, phosphorylated at Thr248, of the [Aurora B/IN-box]^IN-ΔC construct (X. laevis, UniProt Q6DE08 59-361, phosphothreonine at 248).
T1 construct: Aurora B kinase, Xenopus laevis, residues 59-361; also called Aurora B of [Aurora B/IN-box]^loop-P; not shown: 6xHis, N-terminal, cleaved; GB1 domain of streptococcal protein G, N-terminal, cleaved
Description: co-purification; purified complex after ligation with the synthetic peptide: Superdex S200 16/60, then Ni column by the 6xHis of the ligated IN-box, eluted with imidazole. The note with it: both partners purified.

The target in experiment [3] is T2, Aurora B (59-361 aa) from X. laevis, dephosphorylated, of the [Aurora B/IN-box]^IN-ΔC construct (X. laevis, UniProt Q6DE08 59-361).
T2 construct: Aurora B kinase, Xenopus laevis, residues 59-361; Thr248 not phosphorylated; also called Aurora B of [Aurora B/IN-box]^IN-P; not shown: 6xHis, N-terminal, cleaved; GB1 domain of streptococcal protein G, N-terminal, cleaved
The experiment is described as above. Particulars: both partners purified.

With “Aurora B 60-361 [Aurora B/IN-box]no-P, λ-phosphatase treated”, in experiment [1], the “other: complex molecular weight” value was “same; reference ~44”.

B1: Semisynthetic IN-box (790-858, Phe845Cys) with unphosphorylated TSS motif and C-terminal 6xHis, as in [Aurora B/IN-box]^loop-P (domain or fragment, X. laevis)
chain: DESQPRKPIPAWASGNLLTQAIRQQYYKPIDVDRMYGTIDSPKLEELFNKSKPRYCKRTSSAVWHSPPL
notes: INCENP, Xenopus laevis, IN-box residues 790-844; synthetic peptide, IN-box residues 845-858 of X. laevis INCENP with Cys in place of Phe845 (scar of the ligation); also called IN-box of [Aurora B/IN-box]^loop-P; IN-box^Phe845Cys; source: IN-box^ΔC (E. coli, purified, C-terminal thioester) ligated with a synthetic peptide; purified (Superdex S200, Ni column); not shown: 6xHis, C-terminal, kept
Turning to B1, in experiment [2], the binding result was “binds”.

B2: Semisynthetic IN-box (790-858, Phe845Cys) phosphorylated at Ser849 and Ser850 with C-terminal 6xHis, as in [Aurora B/IN-box]^IN-P (domain or fragment, X. laevis)
chain: DESQPRKPIPAWASGNLLTQAIRQQYYKPIDVDRMYGTIDSPKLEELFNKSKPRYCKRT[pS][pS]AVWHSPPL-{H2N-H2N-H2N-H2N-H2N-H2N}
notes: INCENP, Xenopus laevis, IN-box residues 790-844; synthetic peptide, IN-box residues 845-858 of X. laevis INCENP with Cys in place of Phe845 (scar of the ligation), both serines of the TSS motif phosphorylated; also called IN-box of [Aurora B/IN-box]^IN-P; IN-box^Phe845Cys; source: IN-box^ΔC (E. coli, purified, C-terminal thioester) ligated with a synthetic phosphopeptide; purified (Superdex S200, …)
On to B2, for which, in experiment [3], the binding result was “binds”.
